Measured values as given in IntAct's records for PubMed 21151871.

B1: Guanylate-binding protein 1 (Homo sapiens), P32455 (parent)
chain: MASEIHMTGPMCLIENTNGRLMANPEALKILSAITQPMVVVAIVGLYRTGKSYLMNKLAGKKKGFSLGSTVQSHTKGIWMWCVPHPKKPGHILVLLDTEGLGDVEKGDNQNDSWIFALAVLLSSTFVYNSIGTINQQAMDQLYYVTELTHRIRSKSSPDENENEVEDSADFVSFFPDFVWTLRDFSLDLEADGQPLTPDEYLTYSLKLKKGTSQKDETFNLPRLCIRKFFPKKKCFVFDRPVHRRKLAQLEKLQDEELDPEFVQQVADFCSYIFSNSKTKTLSGGIQVNGPRLESLVLTYVNAISSGDLPCMENAVLALAQIENSAAVQKAIAHYEQQMGQKVQLPTETLQELLDLHRDSEREAIEVFIRSSFKDVDHLFQKELAAQLEKKRDDFCKQNQEASSDRCSALLQVIFSPLEEEVKAGIYSKPGGYRLFVQKLQDLKKKYYEEPRKGIQAEEILQTYLKSKESMTDAILQTDQTLTEKEKEIEVERVKAESAQASAKMLQEMQRKNEQMMEQKERSYQEHLKQLTEKMENDRVQLLKEQERTLALKLQEQEQLLKEGFQKESRIMKNEIQDLQTKMRRRKACTIS
partner: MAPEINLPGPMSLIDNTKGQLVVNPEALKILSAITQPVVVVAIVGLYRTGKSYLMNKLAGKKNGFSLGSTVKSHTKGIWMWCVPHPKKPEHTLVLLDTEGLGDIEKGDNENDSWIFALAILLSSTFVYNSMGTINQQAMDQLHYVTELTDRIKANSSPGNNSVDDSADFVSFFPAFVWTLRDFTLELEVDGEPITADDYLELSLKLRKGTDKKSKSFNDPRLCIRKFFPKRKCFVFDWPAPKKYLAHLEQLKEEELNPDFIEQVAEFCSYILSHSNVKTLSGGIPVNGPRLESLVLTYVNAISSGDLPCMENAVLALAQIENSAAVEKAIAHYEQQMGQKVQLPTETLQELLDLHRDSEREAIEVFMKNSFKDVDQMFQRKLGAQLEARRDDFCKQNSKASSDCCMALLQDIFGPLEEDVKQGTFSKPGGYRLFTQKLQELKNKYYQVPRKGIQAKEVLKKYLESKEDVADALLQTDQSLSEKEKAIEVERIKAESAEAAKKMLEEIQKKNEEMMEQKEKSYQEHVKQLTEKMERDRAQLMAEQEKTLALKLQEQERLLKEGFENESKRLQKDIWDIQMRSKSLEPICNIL
B2: Guanylate-binding protein 1 (Homo sapiens), P32455 (parent)
chain: B1 chain
partner: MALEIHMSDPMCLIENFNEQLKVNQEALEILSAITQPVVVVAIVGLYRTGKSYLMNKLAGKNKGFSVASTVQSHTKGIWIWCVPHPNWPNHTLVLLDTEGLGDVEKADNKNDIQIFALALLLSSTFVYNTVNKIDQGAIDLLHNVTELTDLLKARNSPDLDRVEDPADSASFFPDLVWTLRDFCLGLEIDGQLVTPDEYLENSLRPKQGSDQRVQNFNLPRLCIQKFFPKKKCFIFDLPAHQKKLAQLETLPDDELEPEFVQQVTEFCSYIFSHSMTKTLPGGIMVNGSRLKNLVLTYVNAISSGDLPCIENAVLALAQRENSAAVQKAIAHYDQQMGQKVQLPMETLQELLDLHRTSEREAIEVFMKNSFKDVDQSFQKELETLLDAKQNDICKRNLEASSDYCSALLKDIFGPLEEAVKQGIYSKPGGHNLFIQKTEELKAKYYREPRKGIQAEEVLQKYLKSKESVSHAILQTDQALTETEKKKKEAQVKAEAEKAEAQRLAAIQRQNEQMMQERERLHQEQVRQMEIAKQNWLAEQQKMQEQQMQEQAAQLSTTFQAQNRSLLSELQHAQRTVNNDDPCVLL

Variants of: B1
Conditions: with gbp2_human GBP2, P32456

| Variant | effect of a mutation on the interaction |
| --- | --- |
| MASEIHMTGPMCLIENTNGRLMANPEALKILSAITQPMVVVAIVGLYRTGASYLMNKLAGKKKGFSLGSTVQSHTKGIWMWCVPHPKKPGHILVLLDTEGLGDVEKGDNQNDSWIFALAVLLSSTFVYNSIGTINQQAMDQLYYVTELTHRIRSKSSPDENENEVEDSADFVSFFPDFVWTLRDFSLDLEADGQPLTPDEYLTYSLKLKKGTSQKDETFNLPRLCIRKFFPKKKCFVFDRPVHRRKLAQLEKLQDEELDPEFVQQVADFCSYIFSNSKTKTLSGGIQVNGPRLESLVLTYVNAISSGDLPCMENAVLALAQIENSAAVQKAIAHYEQQMGQKVQLPTETLQELLDLHRDSEREAIEVFIRSSFKDVDHLFQKELAAQLEKKRDDFCKQNQEASSDRCSALLQVIFSPLEEEVKAGIYSKPGGYRLFVQKLQDLKKKYYEEPRKGIQAEEILQTYLKSKESMTDAILQTDQTLTEKEKEIEVERVKAESAQASAKMLQEMQRKNEQMMEQKERSYQEHLKQLTEKMENDRVQLLKEQERTLALKLQEQEQLLKEGFQKESRIMKNEIQDLQTKMRRRKACTIS [K51A] | disrupting interaction strength |

Variants of: B2
Conditions: with gbp5_human GBP5, Q96PP8

| Variant | effect of a mutation on the interaction |
| --- | --- |
| MASEIHMTGPMCLIENTNGRLMANPEALKILSAITQPMVVVAIVGLYRTGASYLMNKLAGKKKGFSLGSTVQSHTKGIWMWCVPHPKKPGHILVLLDTEGLGDVEKGDNQNDSWIFALAVLLSSTFVYNSIGTINQQAMDQLYYVTELTHRIRSKSSPDENENEVEDSADFVSFFPDFVWTLRDFSLDLEADGQPLTPDEYLTYSLKLKKGTSQKDETFNLPRLCIRKFFPKKKCFVFDRPVHRRKLAQLEKLQDEELDPEFVQQVADFCSYIFSNSKTKTLSGGIQVNGPRLESLVLTYVNAISSGDLPCMENAVLALAQIENSAAVQKAIAHYEQQMGQKVQLPTETLQELLDLHRDSEREAIEVFIRSSFKDVDHLFQKELAAQLEKKRDDFCKQNQEASSDRCSALLQVIFSPLEEEVKAGIYSKPGGYRLFVQKLQDLKKKYYEEPRKGIQAEEILQTYLKSKESMTDAILQTDQTLTEKEKEIEVERVKAESAQASAKMLQEMQRKNEQMMEQKERSYQEHLKQLTEKMENDRVQLLKEQERTLALKLQEQEQLLKEGFQKESRIMKNEIQDLQTKMRRRKACTIS [K51A] | disrupting interaction strength |
